Results from paper PMC7299284, “Studies in humanized mice and convalescent humans yield a SARS-CoV-2 antibody cocktail” (Science (New York, N.y.), 2020).

B1: REGN10933 (antibody, V domains shown)
VH: QVQLVESGGGLVKPGGSLRLSCAASGFTFSDYYMSWIRQAPGKGLEWVSYITYSGSTIYYADSVKGRFTISRDNAKSSLYLQMNSLRAEDTAVYYCARDRGTTMVPFDYWGQGTLVTVSS
VL: DIQMTQSPSSLSASVGDRVTITCQASQDITNYLNWYQQKPGKAPKLLIYAASNLETGVPSRFSGSGSGTDFTFTISGLQPEDIATYYCQQYDNLPLTFGGGTKVEIK
notes: source: CHO cells, transfected, recombinant fully human antibody; copies: 2 + 2
B2: REGN10987 (antibody, V domains shown)
VH: QVQLVESGGGVVQPGRSLRLSCAASGFTFSNYAMYWVRQAPGKGLEWVAVISYDGSNKYYADSVKGRFTISRDNSKNTLYLQMNSLRTEDTAVYYCASGSDYGDYLLVYWGQGTLVTVSS
VL: QSALTQPASVSGSPGQSITISCTGTSSDVGGYNYVSWYQQHPGKAPKLMIYDVSKRPSGVSNRFSGSKSGNTASLTISGLQSEDEADYYCNSLTSISTWVFGGGTKLTVL
notes: as for B1

What was measured:
[1] = molecular target: T1, RBD of SARS-CoV-2 spike (construct not told: ACE2 blocking, cross-competition and HDX-MS experiments) (SARS-CoV-2, UniProt P0DTC2); assay: HDX-MS; hydrogen-deuterium exchange mass spectrometry of spike protein RBD with each of nine antibodies; conditions: both partners purified
T1 construct: also called spike protein RBD

[2] = molecular target: T1, RBD of SARS-CoV-2 spike (construct not …); assay: cross-competition binding assay; cross-competition of the nine most-potent neutralizing antibodies for binding to RBD (fig. S7)

| Binder | binding result [1] | binding result [2] |
| --- | --- | --- |
| B1 | binds |  |
| B2 |  | binds |
